The supplement of paper PMC9428881
± gives the standard error.

Test: background-corrected fluorescence of 3'-dye-labeled ssDNA relative to brightest sequence (3'-GCGCG) (fraction); higher = brighter dye fluorescence (less quenching)
Protocol: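 Single-stranded DNA is synthesized in situ on glass microarrays by 5'->3' photolithographic synthesis, with a Cy3 or Cy5 phosphoramidite coupled at the 3' end next to all 1024 permuted pentamers P1-P5. The construct is 5'-T5-(ACGT minus P5..P1 trinucleotides)-T15-P5P4P3P2P1-dye-3'; the dye is a 3' terminal modification, not part of the sequence. Arrays were scanned at 532 nm (Cy3) or 635 nm (Cy5), background from unlabeled oligos was subtracted, and values are averaged over 10 replicate features per array and at least 3 independent syntheses.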

Sequence | background-corrected fluorescence (dye: Cy3 (3' terminal)) | background-corrected fluorescence (dye: Cy5 (3' terminal))
TTTTTGCATGAGCAGCATGATTTTTTTTTTTTTTTTCTTC [CTTCT] | 0.382 ± 0.043 | 0.282 ± 0.018
TTTTTTGCTCAGCATGCTCATTTTTTTTTTTTTTTAGTAG [GATGA] | 0.605 ± 0.054 | 0.46 ± 0.032
TTTTTTGATGAGCATGCTGATTTTTTTTTTTTTTTCCTAC [CATCC] | 0.45 ± 0.02 | 0.306 ± 0.042
TTTTTGCAGCATCATCAGCATTTTTTTTTTTTTTTTTGGT [TGGTT] | 0.689 ± 0.017 | 0.593 ± 0.047
TTTTTTGCGCAGCATCATGATTTTTTTTTTTTTTTATTGC [CGTTA] | 0.525 ± 0.024 | 0.402 ± 0.051
TTTTTGCATGCTGCTCATGATTTTTTTTTTTTTTTTAAGC [CGAAT] | 0.524 ± 0.023 | 0.417 ± 0.029
TTTTTTGCTGCTGCTGCTCATTTTTTTTTTTTTTTAAAAG [GAAAA] | 0.576 ± 0.021 | 0.403 ± 0.03
TTTTTTGAGCAGCATCAGCATTTTTTTTTTTTTTTCTTGT [TGTTC] | 0.604 ± 0.019 | 0.429 ± 0.024
TTTTTTCATGATGATGAGCATTTTTTTTTTTTTTTGCCCT [TCCCG] | 0.449 ± 0.021 | 0.329 ± 0.019
TTTTTTGATGCTGCTGCTCATTTTTTTTTTTTTTTCAAAG [GAAAC] | 0.535 ± 0.017 | 0.396 ± 0.026
TTTTTTGATGCGCATGCTGATTTTTTTTTTTTTTTCATAC | 0.443 ± 0.024 | 0.314 ± 0.032
TTTTTTGCTGCTGATGCGCATTTTTTTTTTTTTTTAACAT [TACAA] | 0.529 ± 0.035 | 0.374 ± 0.021
TTTTTTGATGATCATGAGCATTTTTTTTTTTTTTTCCGCT [TCGCC] | 0.579 ± 0.035 | 0.428 ± 0.034
TTTTTTGCTGATCATGCTCATTTTTTTTTTTTTTTACGAG [GAGCA] | 0.62 ± 0.017 | 0.507 ± 0.078
TTTTTGCATCATCATGCTGCTTTTTTTTTTTTTTTTGGAA [AAGGT] | 0.653 ± 0.024 | 0.557 ± 0.029
TTTTTTGCTGATGATCATGATTTTTTTTTTTTTTTACCGC [CGCCA] | 0.592 ± 0.014 | 0.406 ± 0.026
TTTTTGCATGAGCATGCGCATTTTTTTTTTTTTTTTCTAT [TATCT] | 0.501 ± 0.027 | 0.37 ± 0.029
TTTTTTGCTCATGCTGCTGCTTTTTTTTTTTTTTTAGAAA [AAAGA] | 0.64 ± 0.019 | 0.484 ± 0.055
TTTTTTGAGCATGCTGATGCTTTTTTTTTTTTTTTCTACA [ACATC] | 0.498 ± 0.043 | 0.364 ± 0.024
TTTTTTGCTGCTCAGCATGCTTTTTTTTTTTTTTTAAGTA [ATGAA] | 0.591 ± 0.019 | 0.493 ± 0.074
TTTTTTCATCATGATCATCATTTTTTTTTTTTTTTGGCGG | 0.649 ± 0.014 | 0.604 ± 0.054
TTTTTTGATGCGCATGCTGCTTTTTTTTTTTTTTTCATAA [AATAC] | 0.529 ± 0.021 | 0.428 ± 0.022

Sequence | background-corrected fluorescence (dye: Cy3 (3' terminal)) | background-corrected fluorescence (dye: Cy5 (3' terminal))
TTTTTTGCTCATGATGCTGATTTTTTTTTTTTTTTAGCAC [CACGA] | 0.415 ± 0.019 | 0.328 ± 0.012
TTTTTTCATGAGCAGCATGCTTTTTTTTTTTTTTTGCTTA [ATTCG] | 0.534 ± 0.026 | 0.408 ± 0.03
TTTTTTGATGCTGATGATCATTTTTTTTTTTTTTTCACCG [GCCAC] | 0.505 ± 0.024 | 0.423 ± 0.058
TTTTTTGATGCTGAGCATGATTTTTTTTTTTTTTTCACTC [CTCAC] | 0.399 ± 0.017 | 0.296 ± 0.022
TTTTTGCATGCTCATGATGCTTTTTTTTTTTTTTTTAGCA [ACGAT] | 0.52 ± 0.038 | 0.447 ± 0.024
TTTTTGCAGCATGCTCATGCTTTTTTTTTTTTTTTTTAGA [AGATT] | 0.6442 ± 0.0061 | 0.531 ± 0.036
TTTTTTGATGATGATCATCATTTTTTTTTTTTTTTCCCGG [GGCCC] | 0.625 ± 0.027 | 0.562 ± 0.072
TTTTTGCATGCGCATGAGCATTTTTTTTTTTTTTTTATCT [TCTAT] | 0.457 ± 0.037 | 0.33 ± 0.017
TTTTTTCATGATCAGCATCATTTTTTTTTTTTTTTGCGTG [GTGCG] | 0.577 ± 0.012 | 0.439 ± 0.023
TTTTTTCATCATCATGATCATTTTTTTTTTTTTTTGGGCG [GCGGG] | 0.69 ± 0.031 | 0.521 ± 0.062
TTTTTTCATGCTGATGAGCATTTTTTTTTTTTTTTGACCT [TCCAG] | 0.453 ± 0.026 | 0.34 ± 0.026
TTTTTGCATGCTCATCAGCATTTTTTTTTTTTTTTTAGGT [TGGAT] | 0.634 ± 0.019 | 0.543 ± 0.033
TTTTTGCAGCATGCTGATGCTTTTTTTTTTTTTTTTTACA [ACATT] | 0.502 ± 0.01 | 0.397 ± 0.025
TTTTTGCATCATCATGCTGATTTTTTTTTTTTTTTTGGAC [CAGGT] | 0.5012 ± 0.0043 | 0.404 ± 0.046
TTTTTTGCTGCTGATCATGCTTTTTTTTTTTTTTTAACGA [AGCAA] | 0.613 ± 0.0098 | 0.519 ± 0.07
TTTTTTCAGCAGCAGCATGCTTTTTTTTTTTTTTTGTTTA [ATTTG] | 0.521 ± 0.027 | 0.403 ± 0.022
TTTTTTCATGAGCATGATCATTTTTTTTTTTTTTTGCTCG | 0.517 ± 0.015 | 0.375 ± 0.033
TTTTTTGCTCAGCATCATGCTTTTTTTTTTTTTTTAGTGA | 0.645 ± 0.022 | 0.536 ± 0.037
TTTTTTGAGCATCAGCATGATTTTTTTTTTTTTTTCTGTC | 0.443 ± 0.03 | 0.352 ± 0.018
TTTTTTGAGCATCATGAGCATTTTTTTTTTTTTTTCTGCT [TCGTC] | 0.492 ± 0.021 | 0.39 ± 0.049
TTTTTTCATGATCATCATGATTTTTTTTTTTTTTTGCGGC [CGGCG] | 0.658 ± 0.028 | 0.506 ± 0.029
TTTTTTGATCAGCAGCAGCATTTTTTTTTTTTTTTCGTTT [TTTGC] | 0.528 ± 0.017 | 0.393 ± 0.026

Sequence | background-corrected fluorescence (dye: Cy3 (3' terminal)) | background-corrected fluorescence (dye: Cy5 (3' terminal))
TTTTTTGCTCATGCTGATGATTTTTTTTTTTTTTTAGACC [CCAGA] | 0.439 ± 0.034 | 0.331 ± 0.02
TTTTTGCATGATGAGCATGCTTTTTTTTTTTTTTTTCCTA [ATCCT] | 0.455 ± 0.019 | 0.355 ± 0.019
TTTTTTGATCATGCGCATGATTTTTTTTTTTTTTTCGATC [CTAGC] | 0.457 ± 0.018 | 0.354 ± 0.027
TTTTTGCAGCAGCAGCATGATTTTTTTTTTTTTTTTTTTC [CTTTT] | 0.373 ± 0.032 | 0.257 ± 0.015
TTTTTTGCTCATCAGCAGCATTTTTTTTTTTTTTTAGGTT [TTGGA] | 0.584 ± 0.022 | 0.464 ± 0.08
TTTTTTGAGCATGAGCATGCTTTTTTTTTTTTTTTCTCTA [ATCTC] | 0.483 ± 0.0051 | 0.36 ± 0.023
TTTTTTGCTGCTGCTGCTGATTTTTTTTTTTTTTTAAAAC [CAAAA] | 0.461 ± 0.048 | 0.321 ± 0.019
TTTTTGCAGCATGATGAGCATTTTTTTTTTTTTTTTTCCT [TCCTT] | 0.444 ± 0.021 | 0.325 ± 0.036
TTTTTTGCTCATCATGCTGATTTTTTTTTTTTTTTAGGAC [CAGGA] | 0.479 ± 0.014 | 0.383 ± 0.033
TTTTTTGATGAGCAGCATGATTTTTTTTTTTTTTTCCTTC [CTTCC] | 0.362 ± 0.03 | 0.288 ± 0.03
TTTTTGCATCAGCATCATCATTTTTTTTTTTTTTTTGTGG [GGTGT] | 0.585 ± 0.06 | 0.511 ± 0.029
TTTTTTCATGATGCTCAGCATTTTTTTTTTTTTTTGCAGT [TGACG] | 0.607 ± 0.021 | 0.51 ± 0.055
TTTTTTGCTGATGCTCATGATTTTTTTTTTTTTTTACAGC [CGACA] | 0.508 ± 0.023 | 0.404 ± 0.024
TTTTTGCATCATGAGCATGCTTTTTTTTTTTTTTTTGCTA [ATCGT] | 0.55 ± 0.032 | 0.399 ± 0.041
TTTTTGCATGATGCTGCGCATTTTTTTTTTTTTTTTCAAT [TAACT] | 0.554 ± 0.027 | 0.386 ± 0.019
TTTTTTGATGCGCATGATGATTTTTTTTTTTTTTTCATCC [CCTAC] | 0.38 ± 0.02 | 0.273 ± 0.017
TTTTTGCATCATGCTCATGATTTTTTTTTTTTTTTTGAGC [CGAGT] | 0.556 ± 0.024 | 0.422 ± 0.08
TTTTTTGCTCATGAGCAGCATTTTTTTTTTTTTTTAGCTT [TTCGA] | 0.551 ± 0.021 | 0.419 ± 0.041
TTTTTGCATGATGCTCAGCATTTTTTTTTTTTTTTTCAGT [TGACT] | 0.596 ± 0.016 | 0.488 ± 0.05
TTTTTTCAGCATGAGCATCATTTTTTTTTTTTTTTGTCTG | 0.54 ± 0.031 | 0.387 ± 0.025
TTTTTTGATGATCATCATGCTTTTTTTTTTTTTTTCCGGA [AGGCC] | 0.773 ± 0.024 | 0.714 ± 0.045
TTTTTGCAGCATGCGCATGCTTTTTTTTTTTTTTTTTATA [ATATT] | 0.538 ± 0.038 | 0.4 ± 0.028
